# Assay results reported in patent US20060257938A1, “Method of screening for drugs that block ligand binding to a lipid binding protein” (priority 2005, published 2006).
# Key:
# Assay type in all cases: binding
# [1] = Probe fluorescence ratio response to oleic acid relative to ADIFAB2; settings: response relative to ADIFAB2
# How it was run: (§1)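 Each fatty acid's response was expressed relative to ADIFAB2, the rI-FABP-L72A probe, as ΔR/ΔRreference. ΔR is the change in the background-corrected two-wavelength intensity ratio R=Fλ1/Fλ2 from its analyte-free baseline R0. Emission was read near about 420-480 nm for unbound and about 495-580 nm for FFA-bound probe.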
# [2] = Probe fluorescence ratio response to arachidonic acid relative to ADIFAB2; settings: arachidonic acid; response relative to ADIFAB2
# How it was run: as §1
# [3] = Probe fluorescence ratio response to linolenic acid relative to ADIFAB2; settings: response relative to ADIFAB2
# How it was run: as §1
# [4] = Probe fluorescence ratio response to palmitic acid relative to ADIFAB2; settings: response relative to ADIFAB2
# How it was run: as §1
# [5] = Probe fluorescence ratio response to linoleic acid relative to ADIFAB2; settings: response relative to ADIFAB2
# How it was run: as §1
# [6] = Probe fluorescence ratio response to palmitoleic acid relative to ADIFAB2; settings: response relative to ADIFAB2
# How it was run: as §1
# [7] = Probe fluorescence ratio response to stearic acid relative to ADIFAB2; settings: response relative to ADIFAB2
# How it was run: as §1
Molecule,DR/DR OA [1],DR/DR AA [2],DR/DR LNA [3],DR/DR PA [4],DR/DR LA [5],DR/DR POA [6],DR/DR SA [7]
"14L 18L 31S 73W 117V 72A (protein, listed as Rattus norvegicus, PEPTIDE (1)...(131) wild-type rat intestinal fatty acid binding protein) AFDGTWKVDRNENLEKFLEKMGINVVKRKLSAHDNLKLTITQEGNKFTVKESSNFRNIDVVFELGVDFAYSAWDGTELTGTWTMEGNKLVGKFKRVDNGKELIAVREISGNELIQTVTYEGVEAKRIFKKE",1.208,1.458,1.631,0.692,1.569,1.356,0.329
"14L 18L 31Y 73L 117A 72A (protein, listed as Rattus norvegicus, PEPTIDE (1)...(131) wild-type rat intestinal fatty acid binding protein) AFDGTWKVDRNENLEKFLEKMGINVVKRKLYAHDNLKLTITQEGNKFTVKESSNFRNIDVVFELGVDFAYSALDGTELTGTWTMEGNKLVGKFKRVDNGKELIAVREISGNELIQTATYEGVEAKRIFKKE",1.908,2.987,2.818,1.444,2.948,2.317,0.762
"14L 31W 117V 72A (protein, listed as Rattus norvegicus, PEPTIDE (1)...(131) wild-type rat intestinal fatty acid binding protein) AFDGTWKVDRNENLEKFMEKMGINVVKRKLWAHDNLKLTITQEGNKFTVKESSNFRNIDVVFELGVDFAYSAADGTELTGTWTMEGNKLVGKFKRVDNGKELIAVREISGNELIQTVTYEGVEAKRIFKKE",1.580,1.972,1.894,1.304,2.027,1.768,0.742
"18G 31F 73L 72A (protein, listed as Rattus norvegicus, PEPTIDE (1)...(131) wild-type rat intestinal fatty acid binding protein) AFDGTWKVDRNENYEKFGEKMGINVVKRKLFAHDNLKLTITQEGNKFTVKESSNFRNIDVVFELGVDFAYSALDGTELTGTWTMEGNKLVGKFKRVDNGKELIAVREISGNELIQTYTYEGVEAKRIFKKE",1.365,1.785,1.235,1.025,1.520,1.235,1.690
"18I 55G 73M 72A (protein, listed as Rattus norvegicus, PEPTIDE (1)...(131) wild-type rat intestinal fatty acid binding protein) AFDGTWKVDRNENYEKFIEKMGINVVKRKLGAHDNLKLTITQEGNKFTVKESSNGRNIDVVFELGVDFAYSAMDGTELTGTWTMEGNKLVGKFKRVDNGKELIAVREISGNELIQTYTYEGVEAKRIFKKE",0.574,0.895,1.284,1.137,1.127,1.201,0.360
"14L 18L 73W 117S 72A (protein, listed as Rattus norvegicus, PEPTIDE (1)...(131) wild-type rat intestinal fatty acid binding protein) AFDGTWKVDRNENLEKFLEKMGINVVKRKLGAHDNLKLTITQEGNKFTVKESSNFRNIDVVFELGVDFAYSAWDGTELTGTWTMEGNKLVGKFKRVDNGKELIAVREISGNELIQTSTYEGVEAKRIFKKE",0.374,1.010,1.499,0.259,1.385,0.750,−0.005
"18I 31F 73V 72A (protein, listed as Rattus norvegicus, PEPTIDE (1)...(131) wild-type rat intestinal fatty acid binding protein) AFDGTWKVDRNENYEKFIEKMGINVVKRKLFAHDNLKLTITQEGNKFTVKESSNFRNIDVVFELGVDFAYSAVDGTELTGTWTMEGNKLVGKFKRVDNGKELIAVREISGNELIQTYTYEGVEAKRIFKKE",2.257,2.649,2.738,1.893,3.096,2.665,1.294
"18V 31Y 55I 73G 72A (protein, listed as Rattus norvegicus, PEPTIDE (1)...(131) wild-type rat intestinal fatty acid binding protein) AFDGTWKVDRNENYEKFVEKMGINVVKRKLYAHDNLKLTITQEGNKFTVKESSNIRNIDVVFELGVDFAYSAGDGTELTGTWTMEGNKLVGKFKRVDNGKELIAVREISGNELIQTYTYEGVEAKRIFKKE",0.994,1.007,1.228,0.780,1.220,1.106,−0.094
"38W 106H 117A 72A (protein, listed as Rattus norvegicus, PEPTIDE (1)...(131) wild-type rat intestinal fatty acid binding protein) AFDGTWKVDRNENYEKFMEKMGINVVKRKLGAHDNLKWTITQEGNKFTVKESSNFRNIDVVFELGVDFAYSAADGTELTGTWTMEGNKLVGKFKRVDNGKELIAVHEISGNELIQTATYEGVEAKRIFKKE",0.831,1.326,1.397,0.426,1.248,1.098,0.071
"18V 31V 73I 72A (protein, listed as Rattus norvegicus, PEPTIDE (1)...(131) wild-type rat intestinal fatty acid binding protein) AFDGTWKVDRNENYEKFVEKMGINVVKRKLVAHDNLKLTITQEGNKFTVKESSNFRNIDVVFELGVDFAYSAIDGTELTGTWTMEGNKLVGKFKRVDNGKELIAVREISGNELIQTYTYEGVEAKRIFKKE",0.670,0.863,1.531,1.302,1.151,1.334,0.311
"18I 31Y 73I 72A (protein, listed as Rattus norvegicus, PEPTIDE (1)...(131) wild-type rat intestinal fatty acid binding protein) AFDGTWKVDRNENYEKFIEKMGINVVKRKLYAHDNLKLTITQEGNKFTVKESSNFRNIDVVFELGVDFAYSAIDGTELTGTWTMEGNKLVGKFKRVDNGKELIAVREISGNELIQTYTYEGVEAKRIFKKE",2.322,2.487,2.865,1.825,3.031,2.620,1.310
"104T 115A 74F 72A (protein, listed as Rattus norvegicus, PEPTIDE (1)...(131) wild-type rat intestinal fatty acid binding protein) AFDGTWKVDRNENYEKFMEKMGINVVKRKLGAHDNLKLTITQEGNKFTVKESSNFRNIDVVFELGVDFAYSAAFGTELTGTWTMEGNKLVGKFKRVDNGKELITVREISGNELIATYTYEGVEAKRIFKKE",1.621,2.635,2.206,0.720,2.231,1.661,0.877
"18I 31L 72A (protein, listed as Rattus norvegicus, PEPTIDE (1)...(131) wild-type rat intestinal fatty acid binding protein) AFDGTWKVDRNENYEKFIEKMGINVVKRKLLAHDNLKLTITQEGNKFTVKESSNFRNIDVVFELGVDFAYSAADGTELTGTWTMEGNKLVGKFKRVDNGKELIAVREISGNELIQTYTYEGVEAKRIFKKE",0.719,1.054,1.384,1.182,1.198,1.187,0.305
"14Q 18S 73I 117W 72A (protein, listed as Rattus norvegicus, PEPTIDE (1)...(131) wild-type rat intestinal fatty acid binding protein) AFDGTWKVDRNENQEKFSEKMGINVVKRKLGAHDNLKLTITQEGNKFTVKESSNFRNIDVVFELGVDFAYSAIDGTELTGTWTMEGNKLVGKFKRVDNGKELIAVREISGNELIQTWTYEGVEAKRIFKKE",0.809,0.878,0.894,0.559,0.784,0.834,−0.044
"18I 31L 73G 72A (protein, listed as Rattus norvegicus, PEPTIDE (1)...(131) wild-type rat intestinal fatty acid binding protein) AFDGTWKVDRNENYEKFIEKMGINVVKRKLLAHDNLKLTITQEGNKFTVKESSNFRNIDVVFELGVDFAYSAGDGTELTGTWTMEGNKLVGKFKRVDNGKELIAVREISGNELIQTYTYEGVEAKRIFKKE",0.595,0.981,1.525,1.137,1.146,1.377,0.267
